Where a chain is given by its changes, count along the chain named. Names and notes keep the numbering of the source.
B1: chagasin (recombinant His-tagged wild type) (natural protein)
chain: MSHKVTKAHNGATLTVAVGELVEIQLPSNPTTGFAWYFEGGTKESPNESMFTVENKYFPPDSKLLGAGGTEHFHVTVKAAGTHAVNLTYMRPWTGPSHDSERFTVYLKAN
notes: also called WT; wild type chagasin; source: E. coli M15/pRep4, purified (Ni metal chelate column, HQ ion exchange)
B2: chagasin T31A/T32A double mutant (natural protein)
chain: B1 chain with T31A, T32A
notes: pQE30 construct as m1; also called pGL1258; source: E. coli M15/pRep4, purified (Ni metal chelate column, HQ ion exchange)
B3: chagasin Y89S (natural protein)
chain: B1 chain with Y89S
notes: pQE30 construct as m1; also called pGL1120; source: E. coli M15/pRep4, purified (Ni metal chelate column, HQ ion exchange)
B4: chagasin Y89F (natural protein)
chain: B1 chain with Y89F
notes: pQE30 construct as m1; also called pGL1119; source: E. coli M15/pRep4, purified (Ni metal chelate column, HQ ion exchange)
B5: chagasin T32Y (natural protein)
chain: B1 chain with T32Y
notes: pQE30 construct as m1; also called pGL1198; source: E. coli M15/pRep4, purified (Ni metal chelate column, HQ ion exchange)
B6: chagasin T31V (natural protein)
chain: B1 chain with T31V
notes: pQE30 construct as m1; also called pGL1298; source: E. coli M15/pRep4, purified (Ni metal chelate column, HQ ion exchange)
B7: chagasin T31S (natural protein)
chain: B1 chain with T31S
notes: pQE30 construct as m1; also called pGL1299; source: E. coli M15/pRep4, purified (Ni metal chelate column, HQ ion exchange)
B8: chagasin T32V (natural protein)
chain: B1 chain with T32V
notes: pQE30 construct as m1; also called pGL1196; source: E. coli M15/pRep4, purified (Ni metal chelate column, HQ ion exchange)
B9: chagasin T32E (natural protein)
chain: B1 chain with T32E
notes: pQE30 construct as m1; also called pGL1197; source: E. coli M15/pRep4, purified (Ni metal chelate column, HQ ion exchange)
B10: chagasin W93A (natural protein)
chain: B1 chain with W93A
notes: pQE30 construct as m1; also called pGL1199; source: E. coli M15/pRep4, purified (Ni metal chelate column, HQ ion exchange)
B11: chagasin T32A (natural protein)
chain: B1 chain with T32A
notes: pQE30 construct as m1; also called pGL1211; source: E. coli M15/pRep4, purified (Ni metal chelate column, HQ ion exchange)
B12: chagasin T31A (natural protein)
chain: B1 chain with T31A
notes: pQE30 construct as m1; also called pGL1209; source: E. coli M15/pRep4, purified (Ni metal chelate column, HQ ion exchange)
B13: chagasin T31Y (natural protein)
chain: B1 chain with T31Y
notes: pQE30 construct as m1; also called pGL1210; source: E. coli M15/pRep4, purified (Ni metal chelate column, HQ ion exchange)
B14: chagasin P30A (natural protein)
chain: B1 chain with P30A
notes: pQE30 construct as m1; also called pGL1194; source: E. coli M15/pRep4, purified (Ni metal chelate column, HQ ion exchange)
B15: chagasin T32S (natural protein)
chain: B1 chain with T32S
notes: pQE30 construct as m1; also called pGL1195; source: E. coli M15/pRep4, purified (Ni metal chelate column, HQ ion exchange)
B16: chagasin ΔT31–T32 (devoid of residues T31 and T32) (natural protein)
chain: MSHKVTKAHNGATLTVAVGELVEIQLPSNPGFAWYFEGGTKESPNESMFTVENKYFPPDSKLLGAGGTEHFHVTVKAAGTHAVNLTYMRPWTGPSHDSERFTVYLKAN
notes: source: E. coli M15/pRep4, purified (Ni metal chelate column, HQ ion exchange)

These molecules were tested against human cathepsin L (human) (assay: enzyme inhibition kinetics (Ki for tight-binding inhibitors); peptidase incubated with different chagasin concentrations for 15 min at room temperature, residual hydrolysis of 5 μM Z-Phe-Arg-MCA; Ki from Kiapp with KM 1.5, 2.5 and 60 μM for cruzipain, cathepsin L and papain; methods: RB buffer (50 mM Na2PO4, pH 6.5, 200 mM NaCl, 5 mM EDTA, 2.5 mM DTT), 25 °C; footnote of Table 2: 50 mM Na2HPO4, 100 mM NaCl, 5 mM EDTA, pH 6.5, 5% DMSO, 2.5 mM DTT, 28 °C). Conditions: not given.
Work on “chagasin W93A (from UniProt Q966X9 1-110) (natural protein)” yielded a Ki of 825 pM. With “chagasin T31V (from UniProt Q966X9 1-110) (natural protein)” the Ki was 9.7 pM. With “chagasin T32Y (from UniProt Q966X9 1-110) (natural protein)” the Ki was 2.7 pM. “chagasin T31A/T32A double mutant (from UniProt Q966X9 1-110) (natural protein)” showed a Ki of 1.8 pM. For “chagasin T32V (from UniProt Q966X9 1-110) (natural protein)”, the Ki was 20 pM. “chagasin T32A (from UniProt Q966X9 1-110) (natural protein)” showed a Ki of 14 pM. With “chagasin P30A (from UniProt Q966X9 1-110) (natural protein)” the Ki was 45 pM. For “chagasin T31A (from UniProt Q966X9 1-110) (natural protein)”, the Ki was 3.9 pM. “chagasin T31S (from UniProt Q966X9 1-110) (natural protein)” was tested, and the Ki was 4.9 pM. Molecule “chagasin ΔT31–T32 (devoid of residues T31 and T32) (from UniProt Q966X9 1-110) (natural protein)” has a Ki of 2200 pM. Work on “chagasin T31Y (from UniProt Q966X9 1-110) (natural protein)” yielded a Ki of 6.8 pM. Molecule “chagasin T32S (from UniProt Q966X9 1-110) (natural protein)” has a Ki of 32 pM. B1 gave a Ki of 7.3 pM.

What follows are molecules tested against T1, papain (UniProt P00784 134-345) (assay: enzyme inhibition kinetics (Ki for tight-binding inhibitors); peptidase incubated with different chagasin concentrations for 15 min at room temperature, residual hydrolysis of 5 μM Z-Phe-Arg-MCA; Ki from Kiapp with KM 1.5, 2.5 and 60 μM for cruzipain, cathepsin L and papain; methods: RB buffer (50 mM Na2PO4, pH 6.5, 200 mM NaCl, 5 mM EDTA, 2.5 mM DTT), 25 °C; footnote of Table 2: 50 mM Na2HPO4, 100 mM NaCl, 5 mM …). Conditions: both partners purified.
T1 construct: source: bought: Sigma
T1 sequence (looked up): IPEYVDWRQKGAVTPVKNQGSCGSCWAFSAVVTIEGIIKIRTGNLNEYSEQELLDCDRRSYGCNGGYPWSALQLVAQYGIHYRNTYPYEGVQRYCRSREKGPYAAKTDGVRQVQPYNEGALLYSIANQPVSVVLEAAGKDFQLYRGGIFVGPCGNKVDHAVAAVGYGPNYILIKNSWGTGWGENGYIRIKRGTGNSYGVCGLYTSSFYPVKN
Work on B1 yielded a Ki of 5 ± 0.7 pM. In the case of B2, the Ki is reported as 27 ± 1.5 pM. For B3, the Ki was 316 ± 17 pM. B4: binds.

What follows are molecules tested against T2, cruzipain (Trypanosoma cruzi, UniProt P25779 123-467) in the same assay as above. Conditions: both partners purified.
T2 construct: also called T. cruzi CP cruzipain; major cysteine peptidase of T. cruzi
In the case of B1, the Ki is reported as 7.6 pM. B5 showed a Ki of 16 pM. B2 showed a Ki of 1060 pM. B6 showed a Ki of 70 pM. Work on B7 yielded a Ki of 11 pM. For B8, the Ki was 193 pM. For B9, the Ki was 11 pM. For B10, the Ki was 31 pM. Molecule B11 has a Ki of 16 pM. In the case of B12, the Ki is reported as 317 pM. Work on B13 yielded a Ki of 747 pM. Work on B3 yielded a Ki of 25 pM. With B14 the Ki was 20 pM. For B4, the Ki was 20 pM. B15 gave a Ki of 20 pM. B16 showed a Ki of 5870 pM.

Reference: article PMC2607524, “The role of conserved residues of chagasin in the inhibition of cysteine peptidases” (Febs Letters, 2008)
